Test results from the nanobody polyreactivity screen of Harvey et al. (2022).

Assay: yeast display, Sf9 membrane polyspecificity reagent, FACS + sequencing; frameworks hold sequencing errors
How it was run: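 In a synthetic yeast display library (Saccharomyces cerevisiae BJ5465), nanobody expression was induced with galactose for 36–48 hours. FACS gates were set low and high (top ~1%) using anti-HA fluorescence for expression and streptavidin fluorescence for binding of the Sf9 membrane reagent. Each polyreactivity label is drawn from the gate of origin.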

Sequence	polyreactivity (PSR sort gate)
QVQLVESGGGLVQAGGSLRLSCAASGSTFQIYAMGWYRQAPGKEWELVAAITSSSSTNYADSVKGRFTISRDNAKNTVYLQMNSLKPEDTAVYYCAADVSWRSNWYDYWGQGTQVTVSS	low polyreactivity
QVQLVESGGGLVQAGGSLRLSCAASGSTFQIYAMGWYRQAPGNERELVAAITSSSSTNYADSVKGRFTISRDNAKNTVYLQMNSLKPEDTAVYYCAADVSWRSNWYDYWGQGTQVTVSS	low polyreactivity
QVQLVESGGGLVQAGGSLRLSCAASGSTFQLYAMGWYRQAPGKERELVAAISGIGDSTYYADSVKGRFTISRDNAKYTVYLQMNSLKPEDTAVYYCAREFCDGLSGKFDYWGQGTQVNVSS	low polyreactivity
QVQLVESGGGLVQAGGSLRLSCAASGSTFQNYAMGWYIQAPGKERELVAAIRGNGGITYYADSVKGRFTISRDNAKNTVYLQMNSLKPEDTAVYYFAVRSAWVYGIRRDYWGQGTQVTVSS	high polyreactivity
QVQLVESGGGLVQAGGSLRLSCAASGSTFQNYAMGWYRQAPGKERELVAAINWSGGSTYYADSVKVRFTISRDNAKNTVYLQMNSLKPEDTAVYYCATDDPLAYGSFGPYQPYDYWGQGTQVTVSS	low polyreactivity
QVQLVESGGGLVQAGGSLRLSCAASGSTFQPYAMGWYREAPGKERELVATITWRGGRTYYADSVKGRFTISRDNAKYTVYLQMNSLKPEDTAVYYCNVAYRGFRYYYWGQGTQVNVSS	high polyreactivity
QVQLVESGGGLVQAGGSLRLSCAASGSTFQPYAMGWYRQAPGKEREFVATISGSAGSTYYADSVKGRFKISRDNAKNTVYLQMNSLKPEDTAVYYCNARPARKSLDYDYWGQGTQVTVSS	low polyreactivity
QVQLVESGGGLVQAGGSLRLSCAASGSTFQRYAMGWYRQAPGKERELVAAITIRGTRTYYADSVKGRFTISRDNAKNTVYLQMNSLKPEDTAVYYCAATYYWYGHPSRRYDYWGQGTQVTVSS	high polyreactivity
QVQLVESGGGLVQAGGSLRLSCAASGSTFQRYTMGWYSQAPGKERELVAAISQSGGRTYYADSVKGRFTISREHAKKTVYLEMNSLKPEDTAVYSCNAASRTKFDYWGQGTQVTVSS	high polyreactivity
QVQLVESGGGLVQAGGSLRLSCAASGSTFQSYAMGWYRQAPGKERELVASITRTGGTTYYADSVKGRFTISRDNAKNTVYLQMNSLKPEDTAVYYCNADLGQPISLDDFDYWGQGTQVTVSS	low polyreactivity
QVQLVESGGGLVQAGGSLRLSCAASGSTFQTYAMGWSRQAPGKERELVAAISFNGGSTYYADSVKGRFTISRDNAKNTVYLQMNSLKPEDTAVYYCAVEYTWATALYDGRHDYWGQGTQVTVSS	high polyreactivity
QVQLVESGGGLVQAGGSLRLSCAASGSTFQTYAMGWYRQAPGKERELVAAITSGGSTNYADSVKGRFTISRDNAKNTVYLQMNSLKPEETAVYYCAVRQIYQTSDHRLQYDYWGQGTQVSVSS	low polyreactivity
QVQLVESGGGLVQAGGSLRLSCAASGSTFQTYAMGWYRQAPGKERELVASIDYSGGSTYYADSVKGRFTISRDNAKNTVYLQMNSLKPEDTAVYYCAADLSSDSSYSGYDYWGQGTQVTVSS	low polyreactivity
QVQLVESGGGLVQAGGSLRLSCAASGSTFQWYTMGWYRQAPGKERELVAAITWSGASTYYADSVKGRFTISRDNAKNTVYLQMNSLKPDYTAVYYCAADWRRGSGFYYWGQGTQVTVSS	high polyreactivity
QVQLVESGGGLVQAGGSLRLSCAASGSTFQYNAMGWYRQAPGKERELVAVISGSGSRTYYADSVKGRFTISRDNAKNTVYLQMNSLKPEDTAVYYCAKQRGGEPRSSTYYYWGQGTQVTVSS	high polyreactivity
QVQLVESGGGLVQAGGSLRLSCAASGSTFQYYAMGGYIQAPGKQRQLVAAISSGGSTYYADSVKGRFTISRDNAMNTVYLQMNSLKPEDTAVYYCAADGYYSVSRYTSYKYYYWGQGTQVTVSS	high polyreactivity

Sequence	polyreactivity (PSR sort gate)
QVQLVESGGGLVQAGGSLRLSCAASGSTFQYYAMGWYRQAPGKERELVAAISSGGSTYYADSVKGRFTISRDIAKNTVYLQMNSLKPEDTAVYYCAAYEYDGDYGYCGQGTQVTVSS	high polyreactivity
QVQLVESGGGLVQAGGSLRLSCAASGSTFQYYARGWYRQAPGKETELVAAISDRDGGTFYADSVKGRFTISRDNAKNTVYLQMNSLKPEDTAVYYCATDAVGFRLDDNGYWGQGTQVTVSS	low polyreactivity
QVQLVESGGGLVQAGGSLRLSCAASGSTFQYYDMGWYRQAPGKERELVASITGSGDSTYYADSVKGRFTISRDNAKNTVYLQMNSLKPEDSAVYYCAAQNTWSGDYDYWGQGTQVTVSS	low polyreactivity
QVQLVESGGGLVQAGGSLRLSCAASGSTFRANAMGWYRQAPGKERELVAAISSGGSTYYADSVKGRFTISRDNAKNTVYLQMNSLKPEDTAVYYCAAVTVKYDESGIYYSDDDYWGQGTQVTVSS	high polyreactivity
QVQLVESGGGLVQAGGSLRLSCAASGSTFRANLMGRYRQAPGKERELVAAITSAGGSTYYADSVKGRFTISRDNAKNTVYIQMNSLKPEDTAVYYCNKQERPGPGRARYNYWGQGTQVTVSS	high polyreactivity
QVQLVESGGGLVQAGGSLRLSCAASGSTFRAYAMGWYRQAPGKEREFVADISWSGGSTYYADSVKGRFTISRDNAKNTVYLQMNSLKPEDSAVYYCAAEAAPLIIVTYDYWGQGTQVTVSS	low polyreactivity
QVQLVESGGGLVQAGGSLRLSCAASGSTFRDNAMGWYRQAPGTERELVAAISRRGGNTYYADSVKGRFTISRDNAKNTVYLQMNSLKPEDTAVYYCASEVKTSYSYTHDGYWGQGTKVTVSS	high polyreactivity
QVQLVESGGGLVQAGGSLRLSCAASGSTFRDNVMGWYRQAPGKEWEFVAAISSSVGSTYYADSVKGRFTISRDNAKNTVYLQMNSLKPEDTAVYYCAARLWPSYLSYGKTGDYWGQGTQVTVSS	high polyreactivity
QVQLVESGGGLVQAGGSLRLSCAASGSTFRDYAMGWYRQAPGKERELVAAITYSDGGTYYADSVKGRFTISRDNAKNTVYLQMNSLKPEDTAVYYCAADYPIYSFYYSAYFIFGYWGQGSQVTVSS	low polyreactivity
QVQLVESGGGLVQAGGSLRLSCAASGSTFRDYAMGWYRQAPGTERELVAAITSGGSTNYADSVKGRFTISRDNAKNSVYLQMISLKPEDTAVYYCNARYAGWYTPWGRQSVYSDDYWGQGTQVTVSS	low polyreactivity
QVQLVESGGGLVQAGGSLRLSCAASGSTFRDYDMGWYRQAPGKERELVAAISLSGGRTHYADSVKGRFTISRDNAKNTVYLQMNSLKPEDTAVYYCAARNTGPVQYYYWGQGTQVTVSS	low polyreactivity
QVQLVESGGGLVQAGGSLRLSCAASGSTFRFNTMGWYRQAPGKERELVAAITRGGSTNYADSVKGRFTISRDNAKNTVYLQMNSLKPEDTAVYYCNTTRYSVRKYDYWGQGTQVTVSS	low polyreactivity
QVQLVESGGGLVQAGGSLRLSCAASGSTFRFYAMGWYRQAPGKERELVAGITGSGDSTYYADSVKGRFTISRDNAKNTVYLQMNSLKPEDTAVYYCNKRFLFAGFDYLGQGTQVTVSS	low polyreactivity
QVQLVESGGGLVQAGGSLRLSCAASGSTFRGNAMGWYRQAPGKERELVAGISGSGGRTYYADSVKGRFTISRDNAKNTVYLQMNSLKPEDTAVYYCAARSTVYEYFYYRGWWEYYYWGQGTQVTVSS	low polyreactivity
QVQLVESGGGLVQAGGSLRLSCAASGSTFRGNAMGWYRQAPGKERELVATISRSNGGSTYYADSVKGRFTISRDIAKNTVYLQMNSLKPEDTEVYYCAARSYIGISTYGYWGLGTQVTVSS	low polyreactivity
